What follows are sequences tested on IgA, monoclonal (Homo sapiens) (assay: filter). Details: 37.5 mM NaCl, 3.75 mM sodium citrate, pH 6.0.
TGGGCCGGTAACGGGTTACCGTAAGGTCCC [RAD10] showed a Ka (log10 Ka (M-1)) of 6.92. With TGGTTGGTTTTTGGAAGGATTTTTTCCTTCC [RAD3] the Ka (log10 Ka (M-1)) was 7.38. Sequence TTTTCGCGCGTACGCGCGCGAA [RAD15] has a Ka (log10 Ka (M-1)) of 6.23. With TTTTCGCGCGTTAACGCGCGAA [RAD16] the Ka (log10 Ka (M-1)) was 6.46.

Same assay, conditions: hexaethylene glycol (iSp18) linkers as both loops; 37.5 mM NaCl, 3.75 mM sodium citrate, pH 6.0
Sequence CCTCTTCHEGCTTCTCCHEGGGAGAAG [RAD1] has a Ka (log10 Ka (M-1)) of 6.37.

The sequences below were run on IgG Fab2 fragment (Homo sapiens) (assay: filter). Details: 37.5 mM NaCl, 3.75 mM sodium citrate, pH 6.0.
TGGGCCGGTAACGGGTTACCGTAAGGTCCC [RAD10] showed a Ka (log10 Ka (M-1)) of 6.43. TGGTTGGTTTTTGGAAGGATTTTTTCCTTCC [RAD3] gave a Ka (log10 Ka (M-1)) of 6.97. With TTTTCGCGCGTACGCGCGCGAA [RAD15] the Ka (log10 Ka (M-1)) was 5.33. For TTTTCGCGCGTTAACGCGCGAA [RAD16], the Ka (log10 Ka (M-1)) was 6.23.

Same assay, conditions: hexaethylene glycol (iSp18) linkers as both loops; 37.5 mM NaCl, 3.75 mM sodium citrate, pH 6.0
Sequence CCTCTTCHEGCTTCTCCHEGGGAGAAG [RAD1] has a Ka (log10 Ka (M-1)) of 5.82.

The sequences below were run on IgG Fab2 fragment (Mus musculus) (assay: filter). Details: 37.5 mM NaCl, 3.75 mM sodium citrate, pH 6.0.
TGGGCCGGTAACGGGTTACCGTAAGGTCCC [RAD10] was tested, and the Ka (log10 Ka (M-1)) was 6.76. TGGTTGGTTTTTGGAAGGATTTTTTCCTTCC [RAD3] gave a Ka (log10 Ka (M-1)) of 7.09. TTTTCGCGCGTACGCGCGCGAA [RAD15] was tested, and the Ka (log10 Ka (M-1)) was 6.21. In the case of TTTTCGCGCGTTAACGCGCGAA [RAD16], the Ka (log10 Ka (M-1)) is reported as 6.11.

Same assay, conditions: hexaethylene glycol (iSp18) linkers as both loops; 37.5 mM NaCl, 3.75 mM sodium citrate, pH 6.0
CCTCTTCHEGCTTCTCCHEGGGAGAAG [RAD1] showed a Ka (log10 Ka (M-1)) of 6.38.

The sequences below were run on IgG Fc fragment (Homo sapiens) (assay: filter). Details: 37.5 mM NaCl, 3.75 mM sodium citrate, pH 6.0.
In the case of TGGGCCGGTAACGGGTTACCGTAAGGTCCC [RAD10], the Ka (log10 Ka (M-1)) is reported as 5.92. TGGTTGGTTTTTGGAAGGATTTTTTCCTTCC [RAD3] gave a Ka (log10 Ka (M-1)) of 6.34.

Same assay, conditions: hexaethylene glycol (iSp18) linkers as both loops; 37.5 mM NaCl, 3.75 mM sodium citrate, pH 6.0
CCTCTTCHEGCTTCTCCHEGGGAGAAG [RAD1] showed a Ka (log10 Ka (M-1)) of 5.8.

These sequences were tested on IgG, polyclonal (ChromPure) (Homo sapiens) (assay: filter). Details: hexaethylene glycol (iSp18) linkers as both loops; ultrafiltration, 41 mM Na+, pH 6; pH 5 7.45, pH 7 6.49, pH 8 6.30.
CCTCTTCHEGCTTCTCCHEGGGAGAAG [RAD1] showed a Ka (log10 Ka (M-1)) of 6.51.

Same assay, conditions: inosine at I positions [inosine at 4,14]; ultrafiltration, 41 mM Na+, pH 6; pH 5 7.82, pH 7 6.50, pH 8 6.04
For TTTGGTTGGTTTGGTTGG [RAD19], the Ka (log10 Ka (M-1)) was 7.14.

Same assay, conditions: ultrafiltration, 41 mM Na+, pH 6; pH 5 5.95, pH 7 6.04, pH 8 5.97
Work on CGCGAAAACGCG [RAD22] yielded a Ka (log10 Ka (M-1)) of 6.25.

Same assay, conditions: ultrafiltration, 41 mM Na+, pH 6; pH 5 7.55, pH 7 6.46, pH 8 6.53
GGTTGGTTTGGTTGG [RAD13 (TTT-aptamer)] showed a Ka (log10 Ka (M-1)) of 6.96.

Same assay, conditions: ultrafiltration, 41 mM Na+, pH 6; pH 5 7.61, pH 7 6.37, pH 8 5.74
In the case of TTTTCGCGTGTGTGCGCGAA [RAD12], the Ka (log10 Ka (M-1)) is reported as 6.98.

Same assay, conditions: ultrafiltration, 41 mM Na+, pH 6; pH 5 7.65, pH 7 6.33, pH 8 6.19
TTTTCGCGCGTACGCGCGCGAA [RAD15] was tested, and the Ka (log10 Ka (M-1)) was 7.

Same assay, conditions: ultrafiltration, 41 mM Na+, pH 6; pH 5 8.22, pH 7 7.25, pH 8 6.79
TTTTCGCGCGTTAACGCGCGAA [RAD16] gave a Ka (log10 Ka (M-1)) of 7.8.

Same assay, conditions: ultrafiltration, 41 mM Na+, pH 6; pH 5 8.31, pH 7 6.85, pH 8 6.85
Work on TGGGCCGGTAACGGATTACCGTAAGGTCCC [RAD11] yielded a Ka (log10 Ka (M-1)) of 7.64.

Same assay, conditions: ultrafiltration, 41 mM Na+, pH 6; pH 5 8.41, pH 7 6.81, pH 8 6.72
TGGGCCGGTAACGGGTTACCGTAAGGTCCC [RAD10] showed a Ka (log10 Ka (M-1)) of 7.65.

Same assay, conditions: ultrafiltration, 41 mM Na+, pH 6; pH 5 8.41, pH 7 6.86, pH 8 6.84
TGGAGTCTGCGCGAGTCAGCGCTCAAGATC [RAD8] was tested, and the Ka (log10 Ka (M-1)) was 7.85.

Same assay, conditions: ultrafiltration, 41 mM Na+, pH 6; pH 5 8.50, pH 7 6.86, pH 8 6.74
GGAAAGGTTTTTGGAAAGGTTTTTCCTTTCC [RAD6] showed a Ka (log10 Ka (M-1)) of 7.96.

Same assay, conditions: ultrafiltration, 41 mM Na+, pH 6; pH 5 8.60, pH 7 6.86, pH 8 6.76
For TGGTTGGTTTTTGGAAGGATTTTTTCCTTCC [RAD3], the Ka (log10 Ka (M-1)) was 7.79.

Same assay, conditions: ultrafiltration, 41 mM Na+, pH 6; pH 5 8.75, pH 7 7.11, pH 8 6.81
With GAGTGAGTCTCAGTTAGTTTCGATTGATTCT [RAD5] the Ka (log10 Ka (M-1)) was 8.03.

Each sequence was assayed on IgG, polyclonal (Mus musculus) (assay: filter). Details: 37.5 mM NaCl, 3.75 mM sodium citrate, pH 6.0.
Work on TGGGCCGGTAACGGGTTACCGTAAGGTCCC [RAD10] yielded a Ka (log10 Ka (M-1)) of 7.53. In the case of TGGTTGGTTTTTGGAAGGATTTTTTCCTTCC [RAD3], the Ka (log10 Ka (M-1)) is reported as 7.69. Sequence TTTTCGCGCGTACGCGCGCGAA [RAD15] has a Ka (log10 Ka (M-1)) of 6.35. For TTTTCGCGCGTTAACGCGCGAA [RAD16], the Ka (log10 Ka (M-1)) was 7.07.

Same assay, conditions: hexaethylene glycol (iSp18) linkers as both loops; 37.5 mM NaCl, 3.75 mM sodium citrate, pH 6.0
Work on CCTCTTCHEGCTTCTCCHEGGGAGAAG [RAD1] yielded a Ka (log10 Ka (M-1)) of 6.6.

The sequences below were run on IgG1, monoclonal (Homo sapiens) (assay: filter). Details: 37.5 mM NaCl, 3.75 mM sodium citrate, pH 6.0.
TGGGCCGGTAACGGGTTACCGTAAGGTCCC [RAD10] was tested, and the Ka (log10 Ka (M-1)) was 7.04. With TGGTTGGTTTTTGGAAGGATTTTTTCCTTCC [RAD3] the Ka (log10 Ka (M-1)) was 7.45. TTTTCGCGCGTACGCGCGCGAA [RAD15] showed a Ka (log10 Ka (M-1)) of 6.39. TTTTCGCGCGTTAACGCGCGAA [RAD16] was tested, and the Ka (log10 Ka (M-1)) was 6.87.

Same assay, conditions: hexaethylene glycol (iSp18) linkers as both loops; 37.5 mM NaCl, 3.75 mM sodium citrate, pH 6.0
CCTCTTCHEGCTTCTCCHEGGGAGAAG [RAD1] was tested, and the Ka (log10 Ka (M-1)) was 6.38.

Each sequence was assayed on IgG2, monoclonal (Homo sapiens) (assay: filter). Details: 37.5 mM NaCl, 3.75 mM sodium citrate, pH 6.0.
Sequence TGGGCCGGTAACGGGTTACCGTAAGGTCCC [RAD10] has a Ka (log10 Ka (M-1)) of 7.01. For TGGTTGGTTTTTGGAAGGATTTTTTCCTTCC [RAD3], the Ka (log10 Ka (M-1)) was 7.36. TTTTCGCGCGTACGCGCGCGAA [RAD15] was tested, and the Ka (log10 Ka (M-1)) was 6.18. TTTTCGCGCGTTAACGCGCGAA [RAD16] gave a Ka (log10 Ka (M-1)) of 6.11.

Same assay, conditions: hexaethylene glycol (iSp18) linkers as both loops; 37.5 mM NaCl, 3.75 mM sodium citrate, pH 6.0
CCTCTTCHEGCTTCTCCHEGGGAGAAG [RAD1] showed a Ka (log10 Ka (M-1)) of 6.51.

These sequences were tested on IgG3, monoclonal (Homo sapiens) (assay: filter). Details: 37.5 mM NaCl, 3.75 mM Na citrate, pH 6.0.
TGGGCCGGTAACGGGTTACCGTAAGGTCCC [RAD10] was tested, and the Ka was 6.62 log10 M-1. For TGGTTGGTTTTTGGAAGGATTTTTTCCTTCC [RAD3], the Ka was 6.69 log10 M-1. TTTTCGCGCGTACGCGCGCGAA [RAD15] was tested, and the Ka was 6.22 log10 M-1. In the case of TTTTCGCGCGTTAACGCGCGAA [RAD16], the Ka is reported as 6.31 log10 M-1.

Same assay, conditions: two hexaethylene glycol (iSp18) linkers as loops [iSp18 (hexaethylene glycol) linkers left out between 7-8 and 14-15]; ultrafiltration, Picogreen; 37.5 mM NaCl, 3.75 mM Na citrate, pH 6.0
CCTCTTCCTTCTCCGGAGAAG [RAD1] was tested, and the Ka was 6.17 log10 M-1.

These sequences were tested on IgG4, monoclonal (Homo sapiens) (assay: filter). Details: 37.5 mM NaCl, 3.75 mM Na citrate, pH 6.0.
For TGGGCCGGTAACGGGTTACCGTAAGGTCCC [RAD10], the Ka was 7 log10 M-1. For TGGTTGGTTTTTGGAAGGATTTTTTCCTTCC [RAD3], the Ka was 7.2 log10 M-1. In the case of TTTTCGCGCGTACGCGCGCGAA [RAD15], the Ka is reported as 6.13 log10 M-1. In the case of TTTTCGCGCGTTAACGCGCGAA [RAD16], the Ka is reported as 6.54 log10 M-1.

Same assay, conditions: two hexaethylene glycol (iSp18) linkers as loops [iSp18 (hexaethylene glycol) linkers left out between 7-8 and 14-15]; 37.5 mM NaCl, 3.75 mM Na citrate, pH 6.0
CCTCTTCCTTCTCCGGAGAAG [RAD1] was tested, and the Ka was 6.37 log10 M-1.

The sequences below were run on IgM, monoclonal (Homo sapiens) (assay: filter). Details: 37.5 mM NaCl, 3.75 mM sodium citrate, pH 6.0.
TGGGCCGGTAACGGGTTACCGTAAGGTCCC [RAD10] was tested, and the Ka (log10 Ka (M-1)) was 6.7. TGGTTGGTTTTTGGAAGGATTTTTTCCTTCC [RAD3] was tested, and the Ka (log10 Ka (M-1)) was 6.71. TTTTCGCGCGTACGCGCGCGAA [RAD15] was tested, and the Ka (log10 Ka (M-1)) was 6.19. TTTTCGCGCGTTAACGCGCGAA [RAD16] was tested, and the Ka (log10 Ka (M-1)) was 6.26.

Same assay, conditions: hexaethylene glycol (iSp18) linkers as both loops; 37.5 mM NaCl, 3.75 mM sodium citrate, pH 6.0
CCTCTTCHEGCTTCTCCHEGGGAGAAG [RAD1] gave a Ka (log10 Ka (M-1)) of 6.32.

Reference: patent US20100233678
